Substitutions are numbered along the chain they refer to. Read-outs that look alike come from different tables or passages of the source.
How the values were obtained:
mouse IL-25 [1] = target: T1, mouse IL-25 (mouse, UniProt Q8VHH8 17-169)
T1 chain: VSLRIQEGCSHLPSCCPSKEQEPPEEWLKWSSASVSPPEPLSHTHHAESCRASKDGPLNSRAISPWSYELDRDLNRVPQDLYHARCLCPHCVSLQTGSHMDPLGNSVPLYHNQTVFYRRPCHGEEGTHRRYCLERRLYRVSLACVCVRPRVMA

hABM125.10 = assay: SPR
hABM125.9 = assay: SPR
mouse IL-25 [2] = target: T1, mouse IL-25; assay: SPR
[3] = target: T2, recombinant human IL-25 (R&D Systems) (human, UniProt Q9H293 33-177)
T2 chain: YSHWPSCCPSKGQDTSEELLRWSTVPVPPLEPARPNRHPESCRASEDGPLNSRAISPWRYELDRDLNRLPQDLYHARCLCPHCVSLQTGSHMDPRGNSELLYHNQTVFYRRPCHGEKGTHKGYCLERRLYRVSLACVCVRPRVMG

B1: ABM109.2 (antibody, V domains shown)
VH: QVQLVQSGAEVKKPGASVKVSCKASGYTFSSYWIEWVRQAPGQGLEWIGQILPGIGSTNYNEKFKGRVTITADTSTSTVYMELSSLRSEDTAVYYCARGYGNYGDYWGQGTTVTVSS
VL: DIVLTQSPASLAVSPGQRATITCRASESVDSYGNSFMHWYQQKPGQPPKLLIYRASNLESGVPARFSGSGSGTDFTLTINPVEAQDTANYYCQQSNEDPLTFGAGTKLELKR
Q: For B1, which Kd (mouse IL-25 [1]) is on record?
A: 28 pM

B2: mouse IL-25 (NS0) (ligand)
chain: T1 chain
Q: With B2 as the binder, how does the Kd (hABM125.10) read?
A: 1060 pM

Q: And the Kd (hABM125.9)?
A: 733 pM

B3: ABM125 (antibody, V domains shown)
VH: QVTLKVSGPGILQPSQTLSLTCSFSGFSLNTSGMGVGWIRQPSGKGLEWLAHIWWDDVKRYNPALKSRLTISKDTSGSQVFLKIASVDTADTATYYCARTLPHFFDYWGQGTTLTVSS
VL: DIQMTQSPAIMSASPGEKVTISCSASSSVSYMYWYQQKSGSSPKPWIYRTSNLASGVPARFSGSGSGTSYSLTISSMEAEDAATYYCKQYHSYPPTWTFGGGTKLEIKR
Q: Which Kd (mouse IL-25 [2]) does the source give for B3 here?
A: 7.3 pM

B4: ABM 109 (antibody, V domains shown)
VH: EVKVVESGADLMKPGASVKISCKATGYTFSSYWIEWVKQRPGHGLEWIGQILPGIGSTNYNEKFKGKATFTADTSSNTAYMQLSSLTSEDSAVYYCARGYGNYGDYWGQGTTVTVSS
VL: B1 VL with P15L, T22S, V62I, G72R, Q85D, T87V, N89T
Q: Which Kd [3] does the source give for B4 here?
A: 4 pM

— patent US20200291105A1 (published 2020)
